Data on 2 molecules can be found in patent publication US20050089521A1 (published 2005).

The experiment deals with T1, human trkC (human, UniProt Q16288 32-429, limits assumed).
T1 construct: also called htrkC; trkC receptor
The experiment can be described thus: BIAcore analysis (SPR); format not stated. Background: Surface plasmon resonance follows binding to a sensor surface in real time, without labels.

B1: humanized anti-trkC agonist antibody A5 (antibody, V domains shown)
VH: QVQLVQSGAEVKKPGASVKVSCKASGYTFTSYRIHWVRQAPGQGLEWMGEIYPSNARTNYNEKFKSRVTMTRDTSTSTVYMELSSLRSEDTAVYYCARKYYYGNTRRSWYFDVWGQGTTVTVS
VL: DIQMTQSPSSLSASVGDRVTITCRASESIDNYGISFLAWYQQKPGKAPKLLIYAASNRGSGVPSRFSGSGSGTDFTFTISSLQPEDIATYYCQQSKTVPRTFGQGTKLEIKR
notes: also called humanized monoclonal antibody A5
Molecule B1 returned a dissociation constant (Kd) of about 0.28 nM.

B2: mouse anti-trkC agonist monoclonal antibody 2256 (antibody, V domains shown)
VH: QVQLQQPGAELVKPGASVKLSCKASGYTFTSYWMHWVKQRPGQGLEWIGEIYPSNGRTNYNEKFKSKATLTVDKSSSTAYMQLSSLTSEDSAVYYCARKYYYGNSYRSWYFDVWGAGTTLTVS
VL: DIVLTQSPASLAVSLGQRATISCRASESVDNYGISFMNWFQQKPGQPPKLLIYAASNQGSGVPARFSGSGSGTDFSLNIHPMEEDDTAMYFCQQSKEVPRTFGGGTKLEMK
The molecule B2 came in with a Kd of about 40 nM.

Broadly, the Kd is the free concentration of one partner at which half of the binding sites on the other are occupied at equilibrium, for simple one-to-one binding.
